Reference: US20220033515A1

How the values were obtained:
hVEGF165 (human) = hVEGF165 (human) (UniProt P15692); assay: competition ELISA of hIgG, hVEGF165; axis 'Conc (nM)'
[1] = biological target: human vascular endothelial growth factor (hVEGF) (human) (UniProt P15692); assay: blocking ELISA: biotin-VEGF with hIgG, capture on Avastin
human vascular endothelial growth factor (hVEGF) (human), sequence (P15692 other isoform, or with tags, fused parts or gaps limits assumed): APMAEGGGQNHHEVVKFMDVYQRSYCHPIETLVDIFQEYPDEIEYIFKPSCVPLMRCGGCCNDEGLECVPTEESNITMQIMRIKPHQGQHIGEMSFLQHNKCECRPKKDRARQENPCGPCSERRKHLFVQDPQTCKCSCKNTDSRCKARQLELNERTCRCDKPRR

hVEGF165 (human), sequence (P15692 other isoform, or with tags, fused parts or gaps limits assumed): as above

- IC50 (read off the curve) (hVEGF165 (human)): 3 nM
- IC50 (read off the curve) [1]: 3 nM
Substance: G6 hIgG (antibody)
